Our source for the pKD, pIC50 and t1/2 values is patent publication US20250296971A1, “GASTRIC INHIBITORY PEPTIDE RECEPTOR LIGANDS” (priority 2021, published 2025).

*1 amine or outer side, *2 acyl side, *3 side chain or, on linkers, in order; H or OH if unused. Bridges are numbered along the chain shown (N, C = ends). Where no end group is shown, it is not given here. Side-chain parts run from the residue outwards. [ ]: non-standard residue; d: D form. The star is where a group is joined. Ttds = 1,13-diamino-4,7,10-trioxatridecan-succinamic acid, NCCCOCCOCCOCCCNC(=O)CCC(=O)*; DOTA(Ga) = O=C1CN2CCN3CCN(CC(=O)*)CCN(CC2)CC(=O)[O][Ga]([O]1)[O]C(=O)C3; DOTA(In) = O=C1CN2CCN3CCN(CC(=O)*)CCN(CC2)CC(=O)[O][In]([O]1)[O]C(=O)C3; DOTA(Lu) = O=C1CN2CCN3CCN(CC(=O)*)CCN(CC2)CC(=O)[O][Lu]([O]1)[O]C(=O)C3; NH(1-deoxy-D-glucityl) = OC[C@@H](O)[C@@H](O)[C@H](O)[C@@H](O)CN*; dE(AGLU) = D-glutamic acid bearing 1-amino-1-deoxy-D-glucitol; Pro(trans-4-NH2) = O=C([C@@H]1C[C@@H](N[*:3])CN1[*:1])[*:2]; DOTA = O=C(O)CN1CCN(CC(=O)O)CCN(CC(=O)*)CCN(CC(=O)O)CC1; 2Lut = 2,6-lutidylidene bridge between two thiols; Trp(5-Cl) = N[C@@H](Cc1c[nH]c2ccc(Cl)cc12)C(=O)O; Pyridine(2,6-diCH2) = c1cc(C[*:1])nc(C[*:2])c1; APAc = 4-amino-1-carboxymethylpiperidine; Pro(4S-NH2) = N[C@@H]1CN[C@H](C(=O)O)C1; mXylylene = c1cc(C[*:1])cc(C[*:2])c1; Glutaryl = O=C(CCCC(=O)[*:2])[*:1]; AGLU = 1-amino-1-deoxy-D-glucitol; dDap(NTASEROL) = not defined here; Hyp = O=C(O)[C@@H]1C[C@@H](O)CN1; Cysteamide = C(CS[*:3])N[*:1]; GLUSEROL = not defined here; NTASEROL = not defined here; Api = NC1(C(=O)O)CCNCC1; Thp = NC1(C(=O)O)CCOCC1; Aib = CC(C)(N)C(=O)O

The target of assay [1] is biotinylated extracellular domain of the human GIP receptor (bioGIPR) (human) (UniProt P48546). Put plainly: SPR single cycle kinetics, bioGIPR captured on chip; category A: pKD >9.0.
biotinylated extracellular domain of the human GIP receptor (bioGIPR) (human), sequence (P48546 24-138 limits assumed): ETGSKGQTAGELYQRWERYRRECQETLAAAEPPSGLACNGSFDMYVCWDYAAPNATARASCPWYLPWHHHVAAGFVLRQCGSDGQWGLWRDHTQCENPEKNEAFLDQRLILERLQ
Assay [2] addresses human Gastric Inhibitory Peptide Receptor (human) (UniProt P48546). Briefly: FACS competition with GIP-057 on CHO-K1-hGIPR cells; pIC50 category A: >8.0.
Assay [3] deals with biotinylated extracellular domain of the human GIP receptor (bioGIPR) (human) (UniProt P48546). Put plainly: SPR single cycle kinetics, bioGIPR captured on chip; category A: t1/2 >15 min.
For assay [4], the target named is human Gastric Inhibitory Peptide Receptor (GIPR) (human) (UniProt P48546). Put plainly: FACS competition vs biotinylated GIP-057 on CHO-K1-hGIPR cells; category A: pIC50 >8.0.
human Gastric Inhibitory Peptide Receptor (GIPR) (human), sequence (P48546 22-466 limits assumed): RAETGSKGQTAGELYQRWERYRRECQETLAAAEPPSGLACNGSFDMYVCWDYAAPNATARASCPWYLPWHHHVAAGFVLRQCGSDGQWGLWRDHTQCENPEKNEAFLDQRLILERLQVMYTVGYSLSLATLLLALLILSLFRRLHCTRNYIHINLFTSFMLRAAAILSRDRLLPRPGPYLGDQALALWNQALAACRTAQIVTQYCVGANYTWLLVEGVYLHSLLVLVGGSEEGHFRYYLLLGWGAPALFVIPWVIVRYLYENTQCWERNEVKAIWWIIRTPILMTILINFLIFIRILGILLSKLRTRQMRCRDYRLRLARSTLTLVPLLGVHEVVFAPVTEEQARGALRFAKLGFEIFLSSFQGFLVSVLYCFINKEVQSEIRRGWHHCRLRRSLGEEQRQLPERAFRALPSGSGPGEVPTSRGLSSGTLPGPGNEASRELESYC

human Gastric Inhibitory Peptide Receptor (human), sequence (P48546 22-466 limits assumed): as above

B1: DOTA-Ttds-Asp-Trp-5Clw-4Ap-Glu-leu-[Cys(3MeBn)-Aib-Leu-Ile-AET] (peptide)
peptide: {DOTA-Ttds}-DW[Trp(5-Cl)][Pro(4S-NH2)]E[dL]C[Aib]LI[Cysteamide]
modifications: linker 7-11 via mXylylene
B1 registered a pKD in assay [1] of over 9 pkd. Further, the pIC50 in assay [2] was over 8 pic50. Moreover, the t1/2 in assay [3] is over 15 min.

B2: AGLU-Glutar-Asp-Trp-5Clw-Hyp-Glu-leu-[Cys(2Lut)-Apc(DOTA)-Leu-Ile-Cys]-APAc-glu(AGLU)-NH2 (peptide)
peptide: DWXXEXCXLIC
modifications: AGLU-Glutar; 5Clw; Hyp; D-leu; Apc(DOTA); 2Lut bridge Cys-Cys; APAc; D-glu(AGLU); C-term NH2
The molecule B2 came in with a pKD in assay [1] of over 9 pkd. This molecule also had a pIC50 in assay [2] of over 8 pic50. In assay [3], this molecule had a t1/2 of over 15 min.

B3: NTASEROL-Asp-Trp-5Clw-Tap-Glu-leu-[Cys(2Lut)-Apc(DOTA)-Leu-Ile-Cys]-APAc-dap(NTASEROL)-NH2 (peptide)
peptide: {NTASEROL}-DW[Trp(5-Cl)][Pro(trans-4-NH2)]E[dL]C[Api](DOTA)LIC-{APAc-dDap(NTASEROL)-NH2}
modifications: linker 7-11 via Pyridine(2,6-diCH2); reading uncertain
On to B3, for which the pKD in assay [1] was over 9 pkd. This molecule also registered a t1/2 in assay [3] of over 15 min. For the same molecule, the pIC50 in assay [4] is over 8 pic50.

B4: AGLU-Glutar-Asp-Trp-5Clw-Tap-Glu-leu-[Cys(2Lut)-Apc(DOTA)-Leu-Ile-Cys]-APAc-GLUSEROL (peptide)
peptide: {AGLU-Glutaryl}-DW[Trp(5-Cl)][Pro(trans-4-NH2)]E[dL]C[Api](DOTA)LIC-{APAc-GLUSEROL}
modifications: linker 7-11 via Pyridine(2,6-diCH2); reading uncertain
B4: the pKD in assay [1] was over 9 pkd. In assay [3], this molecule displayed a t1/2 of over 15 min. For the same molecule, in assay [4], the pIC50 was over 8 pic50.

B5: DOTA-Ttds-Asp-Trp-5Clw-Tap-Glu-leu-[Cys(3MeBn)-Aib-Leu-Ile-AET] (peptide)
peptide: {DOTA-Ttds}-DW[Trp(5-Cl)][Pro(trans-4-NH2)]E[dL]C[Aib]LI[Cysteamide]
modifications: linker 7-11 via mXylylene
In the case of B5, the pKD in assay [1] is over 9 pkd. This molecule also returned a pIC50 in assay [2] of over 8 pic50. Besides, in assay [3], the t1/2 was over 15 min.

B6: AGLU-Glutar-APAc-Asp-Trp-5Clw-Tap(AGLU-Glutar)-Glu-leu-[Cys(2Lut)-Apc(DOTA)-Leu-Ile-Cys]-APAc-glu(AGLU)-NH2 (peptide)
peptide: {AGLU-Glutaryl-APAc}-DW[Trp(5-Cl)][Pro(trans-4-NH2)]([Glutaryl-NH(1-deoxy-D-glucityl)])E[dL]C[Api](DOTA)LIC-{APAc-dE(AGLU)-NH2}
modifications: linker 7-11 via Pyridine(2,6-diCH2)
B6 came in with a pKD in assay [1] of over 9 pkd. For the same molecule, the pIC50 in assay [2] was over 8 pic50. Also, in assay [3], the t1/2 was over 15 min.

B7: AGLU-Glutar-Asp-Trp-5Clw-Tap-Glu-leu-[Cys(2Lut)-Apc(DOTA)-Leu-Ile-Cys]-APAc-glu(AGLU)-NH2 (peptide)
peptide: {AGLU-Glutaryl}-DW[Trp(5-Cl)][Pro(trans-4-NH2)]E[dL]C[Api](DOTA)LIC-{APAc-dE(AGLU)-NH2}
modifications: linker 7-11 via Pyridine(2,6-diCH2)
The molecule B7 had a pKD in assay [1] of over 9 pkd. This molecule also showed a pIC50 in assay [2] of over 8 pic50. The t1/2 in assay [3] is over 15 min.

B8: AGLU-Glutar-Asp-Trp-5Clw-Hyp-Glu-leu-[Cys(2Lut)-Apc(DOTA)-Leu-Ile-AET] (peptide)
peptide: {AGLU-Glutaryl}-DW[Trp(5-Cl)][Hyp]E[dL]C[Api](DOTA)LI[Cysteamide]
modifications: thioether (positions not given here) via Pyridine(2,6-diCH2); not fully specified (bridges); printed as AGLU-Glutar-Asp-Trp-5Clw-Hyp-Glu-leu-[Cys(2Lut)-Apc(DOTA)-Leu-Ile-AET]
In assay [1], B8 displayed a pKD of over 9 pkd. In assay [2], this molecule returned a pIC50 of over 8 pic50. This molecule showed a t1/2 in assay [3] of over 15 min.

B9: DOTA-glu(AGLU)-APAc-Asp-Trp-5Clw-Hyp-Glu-leu-[Cys(2Lut)-Thp-Leu-Ile-Cys]-APAc-glu(AGLU)-NH2 (peptide)
peptide: {DOTA-dE(AGLU)-APAc}-DW[Trp(5-Cl)][Hyp]E[dL]C[Thp]LIC-{APAc-dE(AGLU)-NH2}
modifications: linker 7-11 via Pyridine(2,6-diCH2)
Molecule B9 came in with a pKD in assay [1] of over 9 pkd. The pIC50 in assay [2] was over 8 pic50. The same molecule registered a t1/2 in assay [3] of over 15 min.

B10: DOTA-Ttds-Asp-Trp-5Clw-Pro-Glu-leu-[Cys(3MeBn)-Apc(Ac)-Leu-Ile-AET] (peptide)
peptide: {DOTA-Ttds}-DW[Trp(5-Cl)]PE[dL]C[Api](Ac)LI[Cysteamide]
modifications: linker (positions not given here) via mXylylene; not fully specified (bridges); printed as DOTA-Ttds-Asp-Trp-5Clw-Pro-Glu-leu-[Cys(3MeBn)-Apc(Ac)-Leu-Ile-AET]
In assay [1], B10 displayed a pKD of over 9 pkd. The molecule also gave a pIC50 in assay [2] of over 8 pic50. The t1/2 in assay [3] was over 15 min.

B11: AGLU-Glutar-Asp-Trp-5Clw-Tap-Glu-leu-[Cys(2Lut)-Apc(InDOTA)-Leu-Ile-Cys]-APAc-glu(AGLU)-NH2 (peptide)
peptide: {AGLU-Glutaryl}-DW[Trp(5-Cl)][Pro(trans-4-NH2)]E[dL]C[Api](DOTA(In))LIC-{APAc-dE(AGLU)-NH2}
modifications: linker 7-11 via Pyridine(2,6-diCH2)
Regarding B11, the pKD in assay [1] was over 9 pkd. In assay [2], this molecule displayed a pIC50 of over 8 pic50. The same molecule showed a t1/2 in assay [3] of over 15 min.

B12: AGLU-Glutar-Asp-Trp-5Clw-Tap-Glu-leu-[Cys(2Lut)-Apc(GaDOTA)-Leu-Ile-Cys]-APAc-glu(AGLU)-NH2 (peptide)
peptide: {AGLU-Glutaryl}-DW[Trp(5-Cl)][Pro(trans-4-NH2)]E[dL]C[Api](DOTA(Ga))LIC-{APAc-dE(AGLU)-NH2}
modifications: linker 7-11 via Pyridine(2,6-diCH2)
B12: the pKD in assay [1] is over 9 pkd. In assay [2], the pIC50 is over 8 pic50. Moreover, the t1/2 in assay [3] was over 15 min.

B13: HO-Succinyl-Trp-5Clw-Tap-Glu-leu-[Cys(2Lut)-Apc-Leu-Ile-Cys]-APAc-glu(AGLU)-Lys(DOTA)-NH2 (peptide)
peptide: W[Trp(5-Cl)][Pro(trans-4-NH2)]E[dL]C[Api]LIC-{APAc-dE(AGLU)-K(DOTA)-NH2}
modifications: linker 6-10 via 2Lut; not fully specified (N-terminus); printed as HO-Succinyl-Trp-5Clw-Tap-Glu-leu-[Cys(2Lut)-Apc-Leu-Ile-Cys]-APAc-glu(AGLU)-Lys(DOTA)-NH2
Consider B13, for which the pKD in assay [1] was over 9 pkd. This molecule gave a pIC50 in assay [2] of over 8 pic50. The molecule further gave a t1/2 in assay [3] of over 15 min.

B14: AGLU-Glutar-Asp-Trp-5Clw-Hyp-Glu-leu-[Cys(2Lut)-Thp-Leu-Ile-Cys]-APAc-glu(AGLU)-Lys(DOTA)-NH2 (peptide)
peptide: {AGLU-Glutaryl}-DW[Trp(5-Cl)][Hyp]E[dL]C[Thp]LIC-{APAc-dE(AGLU)-K(DOTA)-NH2}
modifications: linker 7-11 via Pyridine(2,6-diCH2)
The molecule B14 displayed a pKD in assay [1] of over 9 pkd. Further, the pIC50 in assay [2] was over 8 pic50. The t1/2 in assay [3] is over 15 min.

B15: DOTA-Ttds-Asp-Trp-5Clw-Pro-Glu-leu-[Cys(3MeBn)-Aib-Leu-Ile-AET] (peptide)
peptide: {DOTA-Ttds}-DW[Trp(5-Cl)]PE[dL]C[Aib]LI[Cysteamide]
modifications: linker (positions not given here) via mXylylene; not fully specified (bridges); printed as DOTA-Ttds-Asp-Trp-5Clw-Pro-Glu-leu-[Cys(3MeBn)-Aib-Leu-Ile-AET]
Molecule B15 came in with a pKD in assay [1] of over 9 pkd. The molecule further showed a pIC50 in assay [2] of over 8 pic50. Moreover, in assay [3], the t1/2 was over 15 min.

B16: AGLU-Glutar-Asp-Trp-5Clw-Hyp-Glu-leu-[Cys(2Lut)-Apc(LuDOTA)-Leu-Ile-Cys]-APAc-glu(AGLU)-NH2 (peptide)
peptide: {AGLU-Glutaryl}-DW[Trp(5-Cl)][Hyp]E[dL]C[Api](DOTA(Lu))LIC-{APAc-dE(AGLU)-NH2}
modifications: linker 7-11 via Pyridine(2,6-diCH2)
In assay [1], B16 gave a pKD of over 9 pkd. This molecule also displayed a pIC50 in assay [2] of over 8 pic50. Further, in assay [3], the t1/2 is over 15 min.

B17: AGLU-Glutar-Asp-Trp-5Clw-Hyp-Glu-leu-[Cys(2Lut)-Apc(InDOTA)-Leu-Ile-Cys]-APAc-glu(AGLU)-NH2 (peptide)
peptide: DWXXEXCXLIC
modifications: AGLU-Glutar; 5Clw; Hyp; D-leu; Apc(InDOTA); 2Lut bridge Cys-Cys; APAc; D-glu(AGLU); C-term NH2
B17: in assay [1], the pKD is over 9 pkd. In assay [2], the pIC50 was over 8 pic50. In addition, the t1/2 in assay [3] is over 15 min.

B18: AGLU-Glutar-Asp-Trp-5Clw-Tap-Glu-leu-[Cys(2Lut)-Apc(LuDOTA)-Leu-Ile-Cys]-APAc-glu(AGLU)-NH2 (peptide)
peptide: {AGLU-Glutaryl}-DW[Trp(5-Cl)][Pro(trans-4-NH2)]E[dL]C[Api](DOTA(Lu))LIC-{APAc-dE(AGLU)-NH2}
modifications: linker 7-11 via Pyridine(2,6-diCH2)
Molecule B18 returned a pKD in assay [1] of over 9 pkd. In assay [2], the pIC50 is over 8 pic50. For the same molecule, the t1/2 in assay [3] was over 15 min.
